Assay results taken from US20230295273A1 (published 2023).

Experiments:
[1] = biological target: PDGFRα-Fc Site 3 mutant (E208N, S210S as printed) (human) (UniProt P16234); assay: BLI (Octet Red); PDGFRα-Fc captured on anti-human Fc sensors, trimer as soluble analyte
[2] = biological target: T1, PDGFRα-Fc wild type (human PDGFRα (1-528) with C-terminal human IgG1 Fc tag) (human, UniProt P16234 24-528); assay: as above
T1 construct: range 1-528; also called WT; PDGFRα WT; not shown: C-terminal human IgG1 (Fc) tag
T1 sequence (P16234 24-528 limits assumed, form in doubt): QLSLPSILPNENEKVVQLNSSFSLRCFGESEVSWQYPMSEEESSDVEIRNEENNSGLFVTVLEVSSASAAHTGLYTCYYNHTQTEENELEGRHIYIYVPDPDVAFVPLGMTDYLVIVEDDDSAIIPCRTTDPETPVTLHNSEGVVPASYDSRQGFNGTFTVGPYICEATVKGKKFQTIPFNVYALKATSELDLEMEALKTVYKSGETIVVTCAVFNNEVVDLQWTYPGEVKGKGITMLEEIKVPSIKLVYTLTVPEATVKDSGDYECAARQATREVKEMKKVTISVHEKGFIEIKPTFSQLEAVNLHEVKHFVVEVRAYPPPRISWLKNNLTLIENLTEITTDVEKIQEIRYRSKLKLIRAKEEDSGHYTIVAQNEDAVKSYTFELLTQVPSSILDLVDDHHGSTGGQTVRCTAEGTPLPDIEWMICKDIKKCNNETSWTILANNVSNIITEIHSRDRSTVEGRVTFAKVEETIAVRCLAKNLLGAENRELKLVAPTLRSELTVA

[3] = biological target: T2, PDGFRα-Fc Site 1 mutant (E52N, E54S) (human, UniProt P16234 24-528); assay: as above
T2 construct: range 1-528; Mutations meant to introduce an N-linked glycosylation site; not shown: C-terminal human IgG1 (Fc) tag
T2 sequence (P16234 24-528 E52N/E54S limits assumed, form in doubt): as the sequence (P16234 24-528 limits assumed, form in doubt) above, with E29N, E31S counted along it

[4] = biological target: T3, PDGFRα-Fc Site 2 mutant (E108N, N110S) (human, UniProt P16234 24-528); assay: as above
T3 construct: range 1-528; Mutations meant to introduce an N-linked glycosylation site; not shown: C-terminal human IgG1 (Fc) tag
T3 sequence (P16234 24-528 E108N/N110S limits assumed, form in doubt): as the sequence (P16234 24-528 limits assumed, form in doubt) above, with E85N, N87S counted along it

[5] = biological target: T4, PDGFRα-Fc Site 4 mutant (E263N, K265S) (human, UniProt P16234 24-528); assay: as above
T4 construct: range 1-528; Mutations meant to introduce an N-linked glycosylation site; not shown: C-terminal human IgG1 (Fc) tag
T4 sequence (P16234 24-528 E263N/K265S limits assumed, form in doubt): as the sequence (P16234 24-528 limits assumed, form in doubt) above, with E240N, K242S counted along it

[6] = biological target: T1, PDGFRα-Fc wild type (human PDGFRα …); assay: BLI with PDGFRα-Fc (FIG. 7D)

Chain of PDGFRα-Fc Site 3 mutant (E208N, S210S as printed) (human) (P16234 24-528, stated change not applied): as the sequence (P16234 24-528 limits assumed, form in doubt) above

With “HCMV gHgLgO trimer (soluble region, wild-type gO) (from UniProt P12824 24-716; Q68672 31-278)” the Kd [1] was 21.5 nM.

B1: HCMV gHgLgO trimer (soluble region, wild-type gO) (other)
chain 1: […]
chain 2: VAVSVAPTAAEKVPAECPELTRRCLLGEVFQGDKYESWLRPLVNVTGRNGPLSQLIRYRPVTPEAANSVLLDDAFLDTLALLYNNPDQLRALLTLLSSDTAPRWMTVMRGYSECGDGSPAVYTCVDDLCRGYDLTRLSYGRSIFTEHVLGFELVPPSLFNVVVAIRNEATRTNRAVRLPVSTAAAPEGITLFYGLYNAVKEFCLRHQLDPPLLRHLDKYYAGLPPELKQTRVNLPAHSRYGPQAVDAR
chain 3: […]
notes: Expressed in Expi293 cells; gH, gL and gO are disulfide-linked; also called HCMV trimer; gHgLgO complex; not shown: C-terminal Myc-Avi-His tag; C-terminal Twin-Strep-tag
B1 showed a Kd [2] of 2.25 nM, a Kd [3] of 16.5 nM and a Kd [4] of 2.7 nM. For the same molecule, the Kd [5] was 4.65 nM.

B2: HCMV gHgLgO trimer with charge mutations at gO (M84R, F111R, R117E, F136R, R212E, R230E, R234E, R336E, F342E, A351R, N358R) (other)
chain 1: […]
chain 2: VAVSVAPTAAEKVPAECPELTRRCLLGEVFQGDKYESWLRPLVNVTGRNGPLSQLIRYRPVTPEAANSVLLDDAFLDTLALLYNNPDQLRALLTLLSSDTAPRWMTVMRGYSECGDGSPAVYTCVDDLCRGYDLTRLSYGRSIFTEHVLGFELVPPSLFNVVVAIRNEATRTNRAVRLPVSTAAAPEGITLFYGLYNAVKEFCLRHQLDPPLLRHLDKYYAGLPPELKQTRVNLPAHSRYGPQAVDAR
chain 3: […]
notes: also called Trimermut; TrimerMUT; not shown: C-terminal Myc-Avi-His tag; C-terminal Twin-Strep-tag
In the case of B2, the Kd [6] is reported as 42500 nM and the “fold reduction of binding against Trimer-WT” value [6] is reported as about 10000 times.
